According to US9598481B2 (priority 2012, dated 2017):
Where “and” joins values, the source holds several entries; their conditions need not be identical. Identical values can stand only once.

Tests used:
[1] = tested on: H5N1 A/Vietnam/1203/04 influenza A virus; format: in vivo, ferrets (Mustela putorius furo)
[2] = tested on: hemagglutinin H3 from A/HK/8/1968; format: binding, influenza A virus
[3] = tested on: hemagglutinin H1 from A/NWS/1933; format: binding, influenza A virus
[4] = tested on: Group2 influenza A virus strains; format: cell-based
[5] = tested on: Group1 influenza A virus strains; format: cell-based
[6] = tested on: H3N2 A/Aichi/2/1968; parameters: species or system DBA/2J mice; details: mouse, in vivo
[7] = tested on: H3N2 A/Port Chalmers/1/1973; format: cell-based, influenza A virus; details: read-out: in vitro IC50
[8] = tested on: H3N2 A/Aichi/2/1968; format: cell-based, influenza A virus; details: read-out: in vitro IC50
[9] = tested on: HIV pseudotype virus bearing hemagglutinin H5 from H5N1/Vietnam/1203/2004; format: cell-based
[10] = tested on: H3N2 A/Hong Kong/1/1968; parameters: species or system DBA/2J mice; details: mouse
[11] = tested on: H3N2 A/Port Chalmers/1/1973; parameters: species or system DBA/2J mice; details: mouse, in vivo
[12] = read-out: EC50 competition with biotinylated mAb 39.29

Molecule | competition for binding with mAb 39.29 on Group2 H3 hemagglutinin stalk epitope [2] | competition for binding of mAb 39.29 on Group1 H1 hemagglutinin stalk [3] | in vitro neutralization of Group2 influenza A virus panel [4] | in vitro neutralization of Group1 influenza A virus panel [5] | further results
CCOC(=O)C1=C[C@@H](OC(CC)CC)[C@H](NC(C)=O)[C@@H](N)C1 [oseltamivir, oseltamivir phosphate, reference compound] |  |  |  |  | mortality ([1]; twice-daily oral 25 mg/kg for 5 days, irrespective of treatment initiation time (48 or 72 hours)): 50%
mAb 36.89: anti-hemagglutinin monoclonal antibody; VL SEQ ID NO:162, VH SEQ ID NO:160 (antibody, V domains shown) VH: QVQLVQSGAELKRPGASVKVSCKTSGYSFNNYGINWVRQAPGQGLEWMGWISAYTGNTHYAKNFEGRVTLTTDTSTSTAYMEVRSLRSDDSAVYFCARAMIQGVVTLYLRPGDYWGQGTLVTVSS VL: DIVMTQSPSTLSASVGDRVTITCRASQSIGNWLAWYQQKPGKAPKLLIYKVSTLESGVPSRFSGSGSGTEFTLTINSLQPDDFATYYCQRYTSNSQGFTFGQGTKLEIK | compete for binding | do not compete for binding | able to neutralize the entire Group2 influenza A virus panel examined | not able to neutralize any Group1 influenza A virus isolate tested | 
mAb23.06C2: phage-display derived anti-hemagglutinin monoclonal antibody; VL SEQ ID NO:170, VH SEQ ID NO:168 (antibody, V domains shown) VH: QVQLQESGPGLVKPSETLSLTCTVSGGLIGTGSYYWGWIRQTPGKGMEWIGSISYSGSTYYHPSLKSRVTISDDTSKNQLFLKLRSVTAADTAQYYCARYNWGIRYFDFWGRGTLVTVSS VL: DIQLTQSPLSPPVTLGQPASISCRSSQSLLYTDGFTYLSWYHQRPGQSPRRLIYKISNRDSGVPDRFSGSGSGTDFTLKISRVEAEDVGVYYCMQATHWPLTFGEGTKVEIK | compete for binding | do not compete for binding | able to neutralize the entire Group2 influenza A virus panel examined | not able to neutralize any Group1 influenza A virus isolate tested | 
mAb 39.29 NCv1: anti-hemagglutinin monoclonal antibody; VL SEQ ID NO:144, VH SEQ ID NO:142 (antibody, V domains shown) VH: QVQLVESGGGVVQPGKSPRLSCAASGPTFSSYAVHWVRQAPGKGLEWVTLISYDGANQYYADSVKGRFTISRDNSKNTVYLQMNSLRPEDTAVYYCAVPGPVFGIFPPWSYFDNWGQGILVTVSS VL: EIVLTQSPATLSVSPGERATLSCRASQVISHNLAWYQQKPGQAPRLLIYGASTRASGIPARFSGSGSGTDYTLTITSLQPEDFAVYYCQHYSNWPPRLTFGGGTKVEIK |  |  |  |  | efficacy at all tested doses [6]: very efficacious; IC50 [7]: 2.9 nM; IC50 [8]: 35 nM; in vitro neutralization of pseudotype virus expressing hemagglutinin H5 [9]: dose-dependent in vitro neutralization; mice protected (survival) ([10]; in vivo): 87.5% and 75%; minimum efficacious dose in vivo ([10]; iv): 15 mg/kg; efficacy at all tested doses [11]: very efficacious
mAb 81.39 SVSH-NYP: anti-hemagglutinin monoclonal antibody; VL SEQ ID NO:117, VH SEQ ID NO:115 (antibody, V domains shown) VH: EVQLVESGGGVVQPGRSLRLSCAASGFAFHNRAMHWVRQAPGKGLEWVALIYFDGSKQYYADSVKGRFTISRDNSKNTVFLQMNSLRPEDTAVYYCAVPGPIFGIFPPWSYFDHWGQGILVTVSS VL: EIVLTQSPATLSVSPGERATLSCRASQSVSHNLAWYQQKPGQAPRLLVYSASTRATGIPARFSGSGSGTEFTLAISSLQSEDFAVYYCQHYTNYPPRLTFGGGSKVEIK |  |  | effective at the in vitro neutralization of all influenza A virus strains tested | effective at the in vitro neutralization of all influenza A virus strains tested | 
mAb 81.39 B1C1: anti-hemagglutinin monoclonal antibody; VL SEQ ID NO:113, VH SEQ ID NO:111 (antibody, V domains shown) VH: QVQLVESGGGVVQPGRSLRLSCAASGFAFHNRAMHWVRQAPGKGLEWVALIYFDGSKQYYADSVKGRFTISRDNSKNTVFLQMNSLRPEDTAVYYCAVPGPIFGIFPPWSYFDHWGQGILVTVSS VL: EIVLTQSPATLSVSPGERATLSCRASQSVDSNLAWYQQKPGQAPRLLVYSASTRATGIPARFSGSGSGTEFTLAISSLQSEDFAVYYCQHYTNWPPRLTFGGGSKVEIK |  |  |  |  | survival ([1]; in vivo, iv, 25 mg/kg): 100% and 80%
mAb 81.39: anti-hemagglutinin monoclonal antibody 81.39, variant not specified in the competition ELISA (antibody, V domains shown) VH: EVQLVESGGGVVQPGRSLRLSCAASGFAFHNRAMHWVRQAPGKGLEWVALIYFDGSKQYYADSVKGRFTISRDNSKNTVFLQMNSLRPEDTAVYYCAVPGPIFGIFPPWSYFDHWGQGILVTVSS VL: EIVLTQSPATLSVSPGERATLSCRASQSVSHNLAWYQQKPGQAPRLLVYSASTRATGIPARFSGSGSGTEFTLAISSLQSEDFAVYYCQHYTNWPPRLTFGGGSKVEIK | compete for binding | compete for binding |  |  | EC50 [2, 12]: 4.21 nM; EC50 [3, 12]: 2.15 nM
mAb9.01F3: phage-display derived anti-hemagglutinin monoclonal antibody; VL SEQ ID NO:166, VH SEQ ID NO:164 (antibody, V domains shown) VH: QVQLVQSGAEVKQPGASVKVSCKASGYTFNAYYIHWVRQAPGQGLEWMGWINPNFGGTHYARKFQGRVTMTRDASINTAYMELDRLISDDTAVYYCVRWRAAAVIMDQFYKMDVWGQGTLVTVSS VL: SSELTQPPSASGTPGQRVTISCSGSTSNIGYNPVSWYQQVPGTAPKLLIYSNTERPSGVPDRFSGSKSGTSASLAISGLQSEDEADYYCAAWDDTLNGPVFGGGTKVTVL | compete for binding | do not compete for binding | able to neutralize the entire Group2 influenza A virus panel examined | not able to neutralize any Group1 influenza A virus isolate tested | 
mAb 39.18 B11: anti-hemagglutinin monoclonal antibody; VL SEQ ID NO:156, VH SEQ ID NO:154 (antibody, V domains shown) VH: EVQLVQSGAEVKKPGSSMKVSCKASGSIFSNYGISWVRQAPGQGLEWMGGIIPIFGAANYAQKFQGRVTITADESTSTVYMEVRSLRSEDTAVYYCARRQQLYKGYYHHWGQGTLVTVSS VL: EIVLTQSPATLSVSPGERVTLSCRASQSVANNLAWYQQKPGQSPRLLIYGASTRDTGIPARFSGSGSGTEFTLTISSLQSEDFAVYYCQQYNNWPPMYTFGQGTKLEIK |  |  | not able to neutralize Group2 influenza A virus strains | effective at in vitro neutralization of the entire Group1 influenza A virus panel examined | 
